T1: SRP72 V136A/R137A double mutant (human, UniProt O76094 1-163, V136A | R137A)
T1 sequence (looked up): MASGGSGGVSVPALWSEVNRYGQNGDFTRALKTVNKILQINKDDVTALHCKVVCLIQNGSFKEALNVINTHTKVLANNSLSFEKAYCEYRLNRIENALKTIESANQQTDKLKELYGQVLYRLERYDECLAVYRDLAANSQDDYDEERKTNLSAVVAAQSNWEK

B1: residues 530–620: C-terminal SRP68 fragment from previous study (protein, UniProt Q9UHB9 530-620, looked up, fragment)
chain: AAILDANDAHQTETSSSQVKDNKPLVERFETFCLDPSLVTKQANLVHFPPGFQPIPCKPLFFDLALNHVAFPPLEDKLEQKTKSGLTGYIK
B2: SRP72^1–163 (human SRP72 N-terminal TPR domain, SRP68-binding domain) (domain or fragment, UniProt O76094 1-163, looked up)
chain: T1 sequence (looked up) with A136V, A137R
B3: Y132A/R133A: double mutant of SRP72 in helix α8 (protein)
chain: T1 sequence (looked up) with Y132A, R133A, A136V, A137R
modifications: left off: His6, N-terminal, state not stated
B4: V136A/R137A: monomeric double mutant of SRP72 in helix α8 (protein)
chain: T1 sequence (looked up)
modifications: left off: His6, N-terminal, state not stated
B5: apo-SRP72: human SRP72 N-terminal TPR domain, residues 1–163, apo form (protein)
chain: T1 sequence (looked up) with A136V, A137R
modifications: left off: His6, N-terminal, cleaved
B6: GST-tagged SRP68 residues 588−610 (23-residue peptide of SRP68) (peptide, UniProt Q9UHB9 588-610, looked up)
chain: PLFFDLALNHVAFPPLEDKLEQK
B7: SRP68/72 complex: heterodimer of SRP68 and SRP72 (protein, UniProt Q9UHB9 1-627; O76094 2-671, looked up)
Signal recognition particle … 1: MAAEKQVPGGGGGGGSGGGGGSGGGGSGGGRGAGGEENKENERPSAGSKANKEFGDSLSLEILQIIKESQQQHGLRHGDFQRYRGYCSRRQRRLRKTLNFKMGNRHKFTGKKVTEELLTDNRYLLLVLMDAERAWSYAMQLKQEANTEPRKRFHLLSRLRKAVKHAEELERLCESNRVDAKTKLEAQAYTAYLSGMLRFEHQEWKAAIEAFNKCKTIYEKLASAFTEEQAVLYNQRVEEISPNIRYCAYNIGDQSAINELMQMRLRSGGTEGLLAEKLEALITQTRAKQAATMSEVEWRGRTVPVKIDKVRIFLLGLADNEAAIVQAESEETKERLFESMLSECRDAIQVVREELKPDQKQRDYILEGEPGKVSNLQYLHSYLTYIKLSTAIKRNENMAKGLQRALLQQQPEDDSKRSPRPQDLIRLYDIILQNLVELLQLPGLEEDKAFQKEIGLKTLVFKAYRCFFIAQSYVLVKKWSEALVLYDRVLKYANEVNSDAGAFKNSLKDLPDVQELITQVRSEKCSLQAAAILDANDAHQTETSSSQVKDNKPLVERFETFCLDPSLVTKQANLVHFPPGFQPIPCKPLFFDLALNHVAFPPLEDKLEQKTKSGLTGYIKGIFGFRS
Signal recognition particle … 2: ASGGSGGVSVPALWSEVNRYGQNGDFTRALKTVNKILQINKDDVTALHCKVVCLIQNGSFKEALNVINTHTKVLANNSLSFEKAYCEYRLNRIENALKTIESANQQTDKLKELYGQVLYRLERYDECLAVYRDLVRNSQDDYDEERKTNLSAVVAAQSNWEKVVPENLGLQEGTHELCYNTACALIGQGQLNQAMKILQKAEDLCRRSLSEDTDGTEEDPQAELAIIHGQMAYILQLQGRTEEALQLYNQIIKLKPTDVGLLAVIANNIITINKDQNVFDSKKKVKLTNAEGVEFKLSKKQLQAIEFNKALLAMYTNQAEQCRKISASLQSQSPEHLLPVLIQAAQLCREKQHTKAIELLQEFSDQHPENAAEIKLTMAQLKISQGNISKACLILRSIEELKHKPGMVSALVTMYSHEEDIDSAIEVFTQAIQWYQNHQPKSPAHLSLIREAANFKLKYGRKKEAISDLQQLWKQNPKDIHTLAQLISAYSLVDPEKAKALSKHLPSSDSMSLKVDVEALENSAGATYIRKKGGKVTGDSQPKEQGQGDLKKKKKKKKGKLPKNYDPKVTPDPERWLPMRERSYYRGRKKGKKKDQIGKGTQGATAGASSELDASKTVSSPPTSPRPGSAATVSASTSNIIPPRHQKPAGAPATKKKQQQKKKKGGKGGW
B8: SRP72 V53I: cancer-associated SRP72 mutant (protein, UniProt O76094 2-671, looked up, variant V53I)
Signal recognition particle …: B7 Signal recognition particle … 2 with V52I
B9: SRP68 F590L: cancer-associated SRP68 mutant (protein, UniProt Q9UHB9 1-627, looked up, variant F590L)
Signal recognition particle …: B7 Signal recognition particle … 1 with F590L
B10: SRP72 Y86C: cancer-associated SRP72 mutant (protein, UniProt O76094 2-671, looked up, variant Y86C)
Signal recognition particle …: B7 Signal recognition particle … 2 with Y85C

Data set [1] in a line: Stability/solubility of SRP68 fragments and of SRP72 without cap. The settings on record: preliminary experiments. The format is physicochemical.
The data set “AUC” deals with the molecule itself. The experiment in a line: AUC.
The data set “SEC” deals with the molecule itself. Put plainly: SEC.
A short description of data set [2]: Size-exclusion chromatography. The format is physicochemical. The settings on record: Superdex 75 10/300 GL; 20 mM Tris-HCl pH 8.0, 500 mM NaCl.
Data set [3] addresses B2. Put plainly: MST.
Data set [4] addresses T1, SRP72 V136A/R137A double mutant. The experiment in a line: pull-down.
For data set [5] the following is noted: ref Iakhiaeva et al., 2009, cited from earlier work.
In a further data set the test system is SRP68. Put plainly: Binding ability of SRP72 mutants with Flag-tagged SRP68 from HCT116 cell lysate. It is filed as cell-based, human. The settings on record: HCT116 cells.
The test system of the next data set is SRP72. The experiment in a line: Binding ability of Flag-tagged SRP68 mutants from HCT116 cell lysate. The format is cell-based, human. The following applies: HCT116 cells; Flag-tagged SRP68 mutant from cell lysate.

The values below come from paper PMC5907831 (Journal of Molecular Cell Biology, 2017).

Where a chain is given by its changes, count along the chain named. Names may count otherwise. Where two headings read alike, the source gives them in different places.

With “570–605: C-terminal SRP68 fragment from previous study (KQANLVHFPPGFQPIPCKPLFFDLALNHVAFPPLED; UniProt Q9UHB9 570-605, looked up, fragment) [reference compound]”, the “degradation / solubility of fragment” value in data set [1] is “either prone to degradation or not soluble”.

With B1, the “degradation / solubility of fragment” value in data set [1] is “either prone to degradation or not soluble”. Regarding B2, the figures for the “stoichiometry N” value in “AUC” and in “SEC” were 4 and 2, respectively. For B3, the “oligomeric state in solution (SEC)” value in data set [2] is given as “eluted as monomers”. Still for that read-out and setting: the value for B4 was “eluted as monomers”; that for B5 was “mainly as a dimer in solution”. Molecule B6 registered a Kd in data set [3] of 730 ± 200 nM. In addition, the binding result in data set [4] is reported as “binds”. Take B7: the figures for the complex stability entry in data set [5] (1 M NaCl) and in data set [5] (2 M urea) were “remains stable” and “stability in 2 M urea”, respectively. For B8, the “binding ability compared with wild-type (HCT116)” value in the data set on SRP68 is “severely compromised or abolished the binding ability”.

With B9, the “binding ability compared with wild-type (HCT116)” value in the data set on SRP72 was “severely compromised or abolished the binding ability”. In the case of B10, the “binding ability compared with wild-type (HCT116)” value in the data set on SRP68 was “severely compromised or abolished the binding ability”.
